Changes are numbered by the printed parent chain. Like-named read-outs stand apart in the source and are kept apart here.
B1: Fab C04 (Fab, V domains shown)
VH: EVQLVESGGGLVQPGGSLRLSCAASGFNISSSYIHWVRQAPGKGLEWVASIYSSYGYTYYADSVKGRFTISADTSKNTAYLQMNSLRAEDTAVYYCARWWASVGGAGGGLDYWGQGTLVTVSS
VL: DIQMTQSPSSLSASVGDRVTITCRASQSVSSAVAWYQQKPGKAPKLLIYSASSLYSGVPSRFSGSRSGTDFTLTISSLQPEDFATYYCQQGYGWLITFGQGTKVEIK
B2: Fab S11 (Fab, V domains shown)
VH: B1 VH with A101I, S102T, V103F
VL: B1 VL with G93A, L95R, I96N
B3: HCoV-229E S ectodomain (17–1115 aa), 229E S trimer (domain or fragment)
chain: QTTNGLNTSYSVCNGCVGYSENVFAVESGGYIPSDFAFNNWFLLTNTSSVVDGVVRSFQPLLLNCLWSVSGLRFTTGFVYFNGTGRGDCKGFSSDVLSDVIRYNLNFEENLRRGTILFKTSYGVVVFYCTNNTLVSGDAHIPFGTVLGNFYCFVNTTIGNETTSAFVGALPKTVREFVISRTGHFYINGYRYFTLGNVEAVNFNVTTAETTDFCTVALASYADVLVNVSQTSIANIIYCNSVINRLRCDQLSFDVPDGFYSTSPIQSVELPVSIVSLPVYHKHTFIVLYVDFKPQSGGGKCFNCYPAGVNITLANFNETKGPLCVDTSHFTTKYVAVYANVGRWSASINTGNCPFSFGKVNNFVKFGSVCFSLKDIPGGCAMPIVANWAYSKYYTIGSLYVSWSDGDGITGVPQPVEGVSSFMNVTLDKCTKYNIYDVSGVGVIRVSNDTFLNGITYTSTSGNLLGFKDVTKGTIYSITPCNPPDQLVVYQQAVVGAMLSENFTSYGFSNVVELPKFFYASNGTYNCTDAVLTYSSFGVCADGSIIAVQPRNVSYDSVSAIVTANLSIPSNWTTSVQVEYLQITSTPIVVDCSTYVCNGNVRCVELLKQYTSACKTIEDALRNSARLESADVSEMLTFDKKAFTLANVSSFGDYNLSSVIPSLPTSGSRVAGRSAIEDILFSKLVTSGLGTVDADYKKCTKGLSIADLACAQYYNGIMVLPGVADAERMAMYTGSLIGGIALGGLTSAVSIPFSLAIQARLNYVALQTDVLQENQKILAASFNKAMTNIVDAFTGVNDAITQTSQALQTVATALNKIQDVVNQQGNSLNHLTSQLRQNFQAISSSIQAIYDRLDTIQADQQVDRLITGRLAALNVFVSHTLTKYTEVRASRQLAQQKVNECVKSQSKRYGFCGNGTHIFSIVNAAPEGLVFLHTVLLPTQYKDVEAWSGLCVDGTNGYVLRQPNLALYKEGNYYRITSRIMFEPRIPTMADFVQIENCNVTFVNISRSELQTIVPEYIDVNKTLQELSYKLPNYTVPDLVVEQYNQTILNLTSEISTLENKSAELNYTVQKLQTLIDNINSTLVDLKWLNRVETYIKWP

Assays:
Assay in all cases: SPR
[1] = biological target: B3
[2] = biological target: T1, HCoV-229E RBD (294–435 aa) (human coronavirus 229E, UniProt P15423 294-435)
T1 chain: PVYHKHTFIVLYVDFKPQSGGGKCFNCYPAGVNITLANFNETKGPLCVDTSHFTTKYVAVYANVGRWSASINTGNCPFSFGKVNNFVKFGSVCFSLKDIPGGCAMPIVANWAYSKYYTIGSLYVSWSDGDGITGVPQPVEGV

[3] = biological target: T2, HCoV-229E S1 subunit (17–560 aa) (human coronavirus 229E, UniProt P15423 17-560)
T2 chain: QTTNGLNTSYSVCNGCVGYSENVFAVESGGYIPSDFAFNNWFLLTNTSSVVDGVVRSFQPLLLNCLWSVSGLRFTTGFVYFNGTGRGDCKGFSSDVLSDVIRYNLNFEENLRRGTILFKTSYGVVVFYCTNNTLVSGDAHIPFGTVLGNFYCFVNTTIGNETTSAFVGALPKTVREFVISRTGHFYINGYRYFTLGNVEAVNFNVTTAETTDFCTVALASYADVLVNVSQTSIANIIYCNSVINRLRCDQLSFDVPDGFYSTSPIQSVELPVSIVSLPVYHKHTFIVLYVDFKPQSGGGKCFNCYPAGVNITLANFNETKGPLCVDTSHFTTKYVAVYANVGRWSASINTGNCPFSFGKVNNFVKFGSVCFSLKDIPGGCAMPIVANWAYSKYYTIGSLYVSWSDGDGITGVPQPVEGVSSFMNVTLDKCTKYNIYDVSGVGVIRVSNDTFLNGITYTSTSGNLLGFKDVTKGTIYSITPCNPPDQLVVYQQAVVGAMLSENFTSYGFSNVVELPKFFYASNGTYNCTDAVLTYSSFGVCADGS

[4] = biological target: T1, HCoV-229E RBD (294–435 aa)
[5] = biological target: B3
[6] = biological target: T2, HCoV-229E S1 subunit (17–560 aa)
[7] = biological target: T1, HCoV-229E RBD (294–435 aa)
[8] = biological target: B3
[9] = biological target: T1, HCoV-229E RBD (294–435 aa)
[10] = biological target: B3
[11] = biological target: T1, HCoV-229E RBD (294–435 aa)
[12] = biological target: B3
R14 [13] = biological target: R14
R17 [14] = biological target: R17
R10 [15] = biological target: R10
S10 [16] = biological target: S10
S08 [17] = biological target: S08
R07 [18] = biological target: R07
S15 [19] = biological target: S15
S02 [20] = biological target: S02
R14 [21] = biological target: R14; remark: listed apart in the source
R17 [22] = biological target: R17; remark: listed apart in the source
R10 [23] = biological target: R10; remark: listed apart in the source
S10 [24] = biological target: S10; remark: listed apart in the source
S08 [25] = biological target: S08; remark: listed apart in the source
R07 [26] = biological target: R07; remark: listed apart in the source
S15 [27] = biological target: S15; remark: listed apart in the source
S02 [28] = biological target: S02; remark: listed apart in the source

Binder: B1
- koff [1]: 0.0064 s⁻¹
- koff [2]: 0.0055 s⁻¹
- koff [3]: 0.007 s⁻¹
- Kd [4]: 2.9 nM
- Kd [5]: 4.4 nM
- Kd [6]: 7.3 nM

Binder: B2
- Kd [7]: 0.2 nM
- Kd [8]: 0.4 nM
- Kd [9]: 0.21 nM
- Kd [10]: 0.38 nM
- koff [11]: 0.00081 s⁻¹
- koff [12]: 0.00054 s⁻¹

Binder: B3
- koff (R14 [13]): 0.0039 s⁻¹
- koff (R17 [14]): 0.0024 s⁻¹
- Kd (R10 [15]): 0.43 nM
- koff (R10 [15]): 0.0012 s⁻¹
- Kd (S10 [16]): 0.28 nM
- koff (S10 [16]): 0.0018 s⁻¹
- koff (S08 [17]): 0.0054 s⁻¹
- koff (R07 [18]): 0.0011 s⁻¹
- Kd (S15 [19]): 0.44 nM
- koff (S15 [19]): 0.00098 s⁻¹
- Kd (S02 [20]): 0.75 nM
- koff (S02 [20]): 0.0035 s⁻¹
- Kd (R14 [21]): 2.7 nM
- Kd (R17 [22]): 2.4 nM
- Kd (R10 [23]): 0.4 nM
- Kd (S10 [24]): 0.3 nM
- Kd (S08 [25]): 2.4 nM
- Kd (R07 [26]): 2 nM
- Kd (S15 [27]): 0.4 nM
- Kd (S02 [28]): 0.8 nM

From PMC9636267 (2022)
